Here are results for 1 substance from patent publication US20160311911A1, “METHODS FOR TREATING ALLERGIC AIRWAY INFLAMMATION” (priority 2015, published 2016).

Test [1] deals with TLR4 on TLR4^Hi HEK 293 cells (TLR4^Hi, CD14^Null, MD2^Null; InvivoGen) (UniProt O00206). In words: flow cytometry; HEK 293 cells incubated with 100 ug/mL BODIPY-RWPE for 30 minutes on ice, then washed. In general terms: Flow cytometry measures light scatter and fluorescence of single cells or particles in a stream.
Test [2] concerns the target TLR4, CD14 and MD2 on TCM^Hi HEK 293 cells (TLR4^Hi, CD14^Hi, MD2^Hi; InvivoGen) (UniProt O00206). The test is described as above.

TLR4 on TLR4^Hi HEK 293 cells (TLR4^Hi, CD14^Null, MD2^Null; InvivoGen), sequence (O00206 24-839 limits assumed): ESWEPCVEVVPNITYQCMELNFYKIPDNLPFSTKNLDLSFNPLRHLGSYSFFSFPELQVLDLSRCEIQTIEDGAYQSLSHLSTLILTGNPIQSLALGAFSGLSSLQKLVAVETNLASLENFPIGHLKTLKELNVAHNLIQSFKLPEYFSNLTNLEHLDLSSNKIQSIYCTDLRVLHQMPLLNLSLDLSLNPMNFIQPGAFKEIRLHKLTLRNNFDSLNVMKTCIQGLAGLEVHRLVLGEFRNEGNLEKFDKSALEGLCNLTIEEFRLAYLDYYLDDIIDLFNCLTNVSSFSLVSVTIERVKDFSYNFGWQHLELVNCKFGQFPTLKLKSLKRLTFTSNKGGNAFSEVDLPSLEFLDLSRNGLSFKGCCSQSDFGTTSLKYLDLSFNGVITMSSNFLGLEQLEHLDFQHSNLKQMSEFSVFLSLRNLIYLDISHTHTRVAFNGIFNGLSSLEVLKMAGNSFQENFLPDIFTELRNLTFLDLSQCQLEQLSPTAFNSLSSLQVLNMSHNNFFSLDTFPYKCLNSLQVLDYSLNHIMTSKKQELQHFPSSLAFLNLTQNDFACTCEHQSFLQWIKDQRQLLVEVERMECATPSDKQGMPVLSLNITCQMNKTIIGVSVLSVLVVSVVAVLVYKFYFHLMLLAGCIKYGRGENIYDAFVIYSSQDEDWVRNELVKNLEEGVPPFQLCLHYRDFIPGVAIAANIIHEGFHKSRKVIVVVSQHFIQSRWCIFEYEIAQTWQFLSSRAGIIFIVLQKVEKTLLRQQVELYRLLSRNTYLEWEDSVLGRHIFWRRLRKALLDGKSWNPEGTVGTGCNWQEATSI
TLR4, CD14 and MD2 on TCM^Hi HEK 293 cells (TLR4^Hi, CD14^Hi, MD2^Hi; InvivoGen), sequence (O00206 24-839 limits assumed, chain 1 of 3): as the sequence (O00206 24-839 limits assumed) above
TLR4, CD14 and MD2 on TCM^Hi HEK 293 cells (TLR4^Hi, CD14^Hi, MD2^Hi; InvivoGen), sequence (P08571 20-345 limits assumed, chain 2 of 3, further chain): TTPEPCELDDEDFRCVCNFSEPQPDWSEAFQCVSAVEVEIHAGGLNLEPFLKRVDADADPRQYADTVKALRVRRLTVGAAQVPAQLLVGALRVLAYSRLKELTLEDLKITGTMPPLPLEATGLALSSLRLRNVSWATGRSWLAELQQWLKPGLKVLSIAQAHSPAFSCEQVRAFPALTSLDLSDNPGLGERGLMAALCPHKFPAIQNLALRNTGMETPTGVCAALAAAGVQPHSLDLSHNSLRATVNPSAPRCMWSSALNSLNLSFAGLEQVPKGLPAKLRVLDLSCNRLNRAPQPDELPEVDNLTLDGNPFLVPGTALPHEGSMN
TLR4, CD14 and MD2 on TCM^Hi HEK 293 cells (TLR4^Hi, CD14^Hi, MD2^Hi; InvivoGen), sequence (Q9Y6Y9 19-160 limits assumed, chain 3 of 3, further chain): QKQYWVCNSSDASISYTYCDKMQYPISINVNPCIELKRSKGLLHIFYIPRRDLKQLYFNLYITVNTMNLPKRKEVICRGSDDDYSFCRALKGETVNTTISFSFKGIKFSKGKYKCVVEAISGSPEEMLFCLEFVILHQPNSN

Regarding “BODIPY-labeled ragweed pollen extract (RWPE)”, the BODIPY-RWPE staining (% by FACS) in test [1] was < 3%; in test [2], 12.9%.
